# According to paper PMC5043372, “A pre-metazoan origin of the CRK gene family and co-opted signaling network” (Scientific Reports, 2016):
# Non-standard residues stand in square brackets, D forms with d. No end group written: not given here. pY = N[C@@H](Cc1ccc(OP(=O)(O)O)cc1)C(=O)O
# T1: SH2 domain of Monosiga brevicollis crka1 (Monosiga brevicollis, UniProt A0A1C9VNP8 1-97)
# T1 construct: seven additional amino acids left at the N-terminus after His-tag removal; For the NMR structure the same domain was made with the E. coli cell-free protein synthesis system; also called Mb-crka1 SH2; crka1 SH2 domain
# T1 sequence: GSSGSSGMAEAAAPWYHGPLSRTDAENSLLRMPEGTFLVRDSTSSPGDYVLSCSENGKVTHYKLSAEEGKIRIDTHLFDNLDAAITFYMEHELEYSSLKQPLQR
# B1: phosphopeptide DM-pYDVP-RN of S. rosetta PTSG_05573 (peptide)
# peptide: DM[pY]DVPRN
# notes: together with EM-pYDVP-RS it overlaps 5 of the 10 YxxP motifs; source: synthetic peptide, bought: Toray Research Center
# B2: phosphopeptide EM-pYDVP-RS of S. rosetta PTSG_05573 (peptide)
# peptide: EM[pY]DVPRS
# notes: together with DM-pYDVP-RN it overlaps 5 of the 10 YxxP motifs; source: synthetic peptide, bought: Toray Research Center
# Target: T1, SH2 domain of Monosiga brevicollis crka1
# Assay: ITC; peptide (400 uM) injected into the cell holding the SH2 domain (40 uM); 25 °C; 25 mM HEPES, pH7, 100 mM NaCl; MicroCal Auto-iTC200
# Conditions: both partners purified
row,Binder,binding result
1,B1,binds
2,B2,binds
